How the values were obtained:
[1] = target: human VLDLR LA1 fused to human IgG1 Fc (human) (UniProt P98155); assay: BLI
[2] = target: human VLDLR LA2 fused to human IgG1 Fc (human) (UniProt P98155); assay: BLI
[3] = target: human VLDLR LA3 fused to human IgG1 Fc (human) (UniProt P98155); assay: BLI
[4] = target: human VLDLR LA5 fused to human IgG1 Fc (human) (UniProt P98155); assay: BLI
[5] = target: WEEV strain California virus-like particles (Western equine encephalitis virus, strain California); assay: ELISA
[6] = target: WEEV California E1 domain III fused to human IgG1 Fc (Western equine encephalitis virus, strain California); assay: BLI

Row | Substance | Kd [5] [nM] | other results
1 | WEEV strain California virus-like particles (complex) | – | Kd [1]: 0.11 nM; Kd [2]: 1.59 nM; Kd [3]: 6.09 nM; Kd [4]: 0.37 nM
2 | human VLDLR LA1-2 fused to human IgG1 Fc (from UniProt P98155-1 28-113) (Fc fusion) | 1630 | –
3 | human VLDLR LA1-3 fused to human IgG1 Fc (from UniProt P98155-1 28-152) (Fc fusion) | 470 | –
4 | human VLDLR LA1-5 fused to human IgG1 Fc (from UniProt P98155-1 28-236) (Fc fusion) | 410 | –
5 | human VLDLR LA3 fused to human IgG1 Fc (from UniProt P98155-1 111-151) (Fc fusion) | 10900 | –
6 | human VLDLR LA3 with 6x His tag (from UniProt P98155-1 111-151) (domain or fragment) | – | Kd [6]: 830 nM
7 | human VLDLR LA5 fused to human IgG1 Fc (from UniProt P98155-1 191-236) (Fc fusion) | 7770 | –
8 | human VLDLR LA5 with 6x His tag (from UniProt P98155-1 191-236) (domain or fragment) | – | Kd [6]: 808 nM
9 | human VLDLR ligand-binding domain (LA1-8) fused to human IgG1 Fc (from UniProt P98155-1 28-355) (Fc fusion) | 1210 | –

Reference: paper PMC12800238
